One block for each binder: values may come before it.
What was measured:
human C1q [1] = biological target: T1, human C1q (human, UniProt P02745 23-245; P02746 28-253; P02747 29-245); assay: C1q binding ELISA, antibody coated and titrated, bound human C1q detected with anti-C1q HRP; NA = do not show activity
T1 construct: also called C1q (AbD Serotec 2221-5504)
Method: (§1) Method: 96-well high protein binding ELISA plates (MaxSorp Nunc) were coated overnight at 4° C. with sample anti-CD47 antibody variants diluted in 0.05 M Sodium Bicarbonate Buffer (pH 9). Samples were diluted at a high concentration of 133.4 nM (20 μg/ml) and titrated 1:2 in an 11-point dilution curve. Plates were washed three times in PBS, 0.05% Tween 20 and blocked for 1 hour at room temperature with ELISA Diluent (0.1 M NAPO₄, 0.1 M NaCl, 0.1% gelatin, 0.05% Tween 20, 0.05% ProClin300). Plates were then washed again three times and incubated for two hours at room temperature with 2 μg/mL human C1q (AbD Serotec 2221-5504, 1 mg/mL stock) diluted in ELISA Diluent. Plates were then washed three times and incubated with sheep anti-human C1q HRP (AbD Serotec 2221-5004P) diluted 1:200 in ELISA Diluent for 1 hour at room temperature to detect bound Clq. Plates were then washed three times, then 100 μL of TMB solution was added. Reaction was quenched by adding 100 μl of 1M Phosphoric Acid and plate was read at 450 nm. Data are plotted using Prism6 as non-linear regression with log (inhibitor) vs. response—Variable slope (four parameters).

human CD47 antigen [2] = biological target: T2, human CD47 antigen (human, UniProt Q08722 19-139, limits assumed); assay: SPR (Biacore): antibody captured on anti-human Fc CM5 chip, human CD47 as analyte at 3.125-50 nM, 1:1 Binding model; the text says this fit is not reliable
T2 construct: also called CD47 analyte
Method: (§2) Immobilization: Anti-human Fc (AHC) surfaces were prepared by amine-coupling monoclonal mouse anti-human Fc IgG (included in the Biacore Human Antibody Capture Kit, GE Life Sciences Cat #BR-1008-39) to a Biacore CM5 sensor chip surface. The running buffer for the immobilization procedure was HBS-EP+ (10 mM HEPES, 150 mM NaCl, 3 mM EDTA, 0.05% v/v P-20 as surfactant). The following was performed in all four flow cells to prepare surfaces amine-coupled anti-human Fc IgG. The CM5 chip surface was activated by injecting a 1:1 (v/v) mixture of 400 mM EDC and 100 mM NHS for 7 minutes at 10 μL/min. Following this treatment, anti-human IgG was diluted to 25 μg/mL in 10 mM sodium acetate buffer pH 5.0, and injected over all the flow cells at 10 μL/min for 7 minutes. Then, Ethanolamine was injected at 10 μL/min for 7 minutes to block all the surfaces.
(§3) Kinetic Assays: For kinetic assays anti-CD47 antibodies were captured onto the anti-human Fc surfaces (surface preparation described above). For capture of the antibodies with human Fc, the antibodies were diluted to 10 μg/mL in HBS-EP+ running buffer. The antibody variants were immobilized by flowing over flow cell 2, 3 or 4 at a flow rate of 10 uL/min for 12 seconds. The analyte (human CD47 antigen) was diluted into running buffer to prepare a serial dilution series created with a 2-fold dilution factor to give concentrations of 3.125, 6.25, 12.5, 25 and 50 nM. After anti-CD47 antibody capture, the CD47 analyte was injected over the flow cells for 180 seconds (3 minutes) at 50 μL/min, and complex dissociation was monitored for 900 seconds (15 minutes). Buffer blanks were also run, and were used to reference the analyte binding data before fitting. Anti-human Fc surfaces were regenerated with two 30-second injections of 3M MgCl₂ at 30 uL/min between each analyte binding cycle.
(§4) Kinetic data analysis: Experimental data for a given antibody—antigen interaction were fit using the 1:1 binding model, using global Rₘₐₓ, global kₐ (association), global kd (dissociation) parameters, and constant RI (bulk refractive index) parameters.

[3] = biological target: T3, human CD47 on CCRF-CEM cells (human, UniProt Q08722 19-323); assay: flow cytometry on CCRF-CEM cells, MFI against concentration, one site specific binding with Hill slope
T3 construct: Endogenous CD47 on the human T lymphoblast line CCRF-CEM (ATCC CCL-119); also called CD47-positive CCRF-CEM cells; CCRF-EM cells
Method: To obtain binding curves, sample variants were titrated 1:2 in FACS buffer (PBS 2% FCS) starting from a high concentration of ˜66 nM for each sample. 0.1×10⁶ CCRF-EM cells were plated in a 96 well plate and incubated in 50 μl FACS buffer containing the indicated concentration of sample variants for 1 hour in ice. Cells were then washed with 150 μ1 FACS buffer and incubated in 50 μl FACS buffer containing the secondary antibody (anti-human-IgG-PE, Jackson ImmunoResearch) diluted 1:100, for 1 hr in ice. Cells were then washed with FACS buffer and fixed in 2% PFA for acquisition with LSR II, DB flow cytometer (BD Biosciences, San Jose, Calif.). Flow Cytometry analysis was performed using FloJo software Version 9.6.4. To obtain titration curves and Kd, Mean Fluorescence Intensity (MFI) values were plotted against concentration (nM). Kd values were calculated using Prism 6, Non linear regression curve fit analysis, One Site Specific Binding with Hill Slope.

human CD47 antigen [4] = biological target: T2, human CD47 antigen; assay: SPR (Biacore), experimental Rmax against theoretical Rmax, stoichiometry 2
Method: as §3
Kinetic data analysis: Experimental data for a given antibody—antigen interaction were fit using the 1:1 binding model, using global Rₘₐₓ, global kₐ (association), global kd (dissociation) parameters, and constant RI (bulk refractive index) parameters. Fraction activity (% ligand activity) was determinined using the following formula to calculate the relationship between the theoretical Rₘₐₓ (Rₘₐₓ Theo) and the experimental Rₘₐₓ (Rₘₐₓ exp). In the formula, stoichiometry represents the instances of interaction between antibody and antigen, for instance, when the antibody is the ligand, each of the antibody arms can interact with antigen, thus the stoichiometry is 2.

human CD47 antigen [5] = biological target: T2, human CD47 antigen; assay: SPR (Biacore), antibody captured on anti-human Fc, human CD47 as analyte 3.125-50 nM, 1:1 model
Method: as §2, §3, §4

human C1q [6] = biological target: T1, human C1q; assay: C1q binding ELISA, antibody coated and titrated from 133.4 nM, human C1q at 2 µg/mL, detected with anti-C1q HRP
Method: as §1

T1 sequence (P02745 23-245 limits assumed, chain 1 of 3): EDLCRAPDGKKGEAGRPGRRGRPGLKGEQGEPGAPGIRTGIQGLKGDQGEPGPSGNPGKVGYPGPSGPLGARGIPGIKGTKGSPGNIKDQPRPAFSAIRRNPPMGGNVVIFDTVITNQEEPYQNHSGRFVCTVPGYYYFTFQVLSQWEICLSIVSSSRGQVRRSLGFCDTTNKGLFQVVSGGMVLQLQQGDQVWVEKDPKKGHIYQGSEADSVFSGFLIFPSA
T1 sequence (P02746 28-253 limits assumed, chain 2 of 3): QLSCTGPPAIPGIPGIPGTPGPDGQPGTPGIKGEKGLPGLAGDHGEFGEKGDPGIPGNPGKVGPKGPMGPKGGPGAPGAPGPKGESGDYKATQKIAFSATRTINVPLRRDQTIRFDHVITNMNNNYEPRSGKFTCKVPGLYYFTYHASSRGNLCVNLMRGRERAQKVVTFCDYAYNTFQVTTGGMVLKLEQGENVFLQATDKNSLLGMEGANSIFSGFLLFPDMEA
T1 sequence (P02747 29-245 limits assumed, chain 3 of 3): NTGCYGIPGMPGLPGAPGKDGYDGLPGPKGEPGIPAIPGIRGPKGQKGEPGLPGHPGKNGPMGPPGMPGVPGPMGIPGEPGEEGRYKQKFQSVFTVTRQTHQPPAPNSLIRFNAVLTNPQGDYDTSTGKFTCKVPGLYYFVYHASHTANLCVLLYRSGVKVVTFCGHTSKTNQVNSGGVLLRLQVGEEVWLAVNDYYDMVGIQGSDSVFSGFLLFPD

B1: anti-CD47 antibody IgG1-13m, cell-free expressed (antibody)
heavy: not shown
light: MNIQMTQSPSAMSASVGDRVTITCKASQDIHRYLSWFQQKPGKVPKHLIYRANRLVSGVPSRFSGSGSGTEFTLTISSLQPEDFATYYCLQYDEFPYTFGGGTKVEIKRTVAAPSVFIFPPSDEQLKSGTASVVCLLNNFYPREAKVQWKVDNALQSGNSQESVTEQDSKDSTYSLSSTLTLSKADYEKHKVYACEVTHQGLSSPVTKSFNRGEC
notes: IgG1 with 13 framework mutations in VH; cell-free system; also called IgG1-13m-CF
binding result (human C1q [1]): no binding | Kd (human CD47 antigen [2]): 4.21 nM | koff (human CD47 antigen [2]): 0.00398 s⁻¹ | kon (human CD47 antigen [2]): 946000 M⁻¹ s⁻¹ | Kd [3]: 0.15 nM

B2: anti-CD47 antibody IgG4P-5m, cell-free expressed (antibody)
heavy: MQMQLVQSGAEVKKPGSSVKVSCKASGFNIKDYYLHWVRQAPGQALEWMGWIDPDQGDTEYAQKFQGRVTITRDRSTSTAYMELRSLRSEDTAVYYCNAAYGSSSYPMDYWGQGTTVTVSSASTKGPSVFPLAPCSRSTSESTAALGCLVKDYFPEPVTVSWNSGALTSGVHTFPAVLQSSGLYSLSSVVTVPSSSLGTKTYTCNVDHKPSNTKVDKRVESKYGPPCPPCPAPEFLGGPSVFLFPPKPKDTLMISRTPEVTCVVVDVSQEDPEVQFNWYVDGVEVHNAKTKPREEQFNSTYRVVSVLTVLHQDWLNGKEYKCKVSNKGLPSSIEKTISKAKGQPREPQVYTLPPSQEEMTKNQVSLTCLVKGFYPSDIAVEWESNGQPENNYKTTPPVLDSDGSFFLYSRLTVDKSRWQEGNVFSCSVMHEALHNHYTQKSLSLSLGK
light: B1 light
notes: IgG4 S228P with 5 framework mutations in VH; cell-free system; also called IgG4P-5m-CF
binding result (human C1q [1]): no binding | Kd [3]: 0.14 nM | % Ligand activity (human CD47 antigen [4]): 38.2% | Kd (human CD47 antigen [5]): 3.6 nM | koff (human CD47 antigen [5]): 0.00254 s⁻¹ | kon (human CD47 antigen [5]): 704000 M⁻¹ s⁻¹

B4: anti-CD47 antibody IgG4P-parental, cell-free expressed (antibody)
heavy: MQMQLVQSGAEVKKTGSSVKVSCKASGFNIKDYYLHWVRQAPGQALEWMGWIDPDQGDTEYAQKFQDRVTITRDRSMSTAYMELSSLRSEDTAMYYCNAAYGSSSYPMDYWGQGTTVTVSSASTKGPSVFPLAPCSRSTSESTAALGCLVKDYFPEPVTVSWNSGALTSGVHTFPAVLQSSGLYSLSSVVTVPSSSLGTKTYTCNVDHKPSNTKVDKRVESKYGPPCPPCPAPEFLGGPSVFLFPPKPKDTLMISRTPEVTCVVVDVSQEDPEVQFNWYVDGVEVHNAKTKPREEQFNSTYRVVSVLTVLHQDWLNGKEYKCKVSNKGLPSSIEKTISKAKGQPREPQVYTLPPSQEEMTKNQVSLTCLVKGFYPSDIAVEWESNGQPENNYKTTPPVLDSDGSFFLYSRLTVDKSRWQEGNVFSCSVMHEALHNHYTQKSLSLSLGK
light: B1 light
notes: Parental variable domains on IgG4 S228P; cell-free system; also called IgG4P-parental-CF
binding result (human C1q [1]): no binding

B7: anti-CD47 antibody IgG4PE-5m, cell-free expressed (antibody)
heavy: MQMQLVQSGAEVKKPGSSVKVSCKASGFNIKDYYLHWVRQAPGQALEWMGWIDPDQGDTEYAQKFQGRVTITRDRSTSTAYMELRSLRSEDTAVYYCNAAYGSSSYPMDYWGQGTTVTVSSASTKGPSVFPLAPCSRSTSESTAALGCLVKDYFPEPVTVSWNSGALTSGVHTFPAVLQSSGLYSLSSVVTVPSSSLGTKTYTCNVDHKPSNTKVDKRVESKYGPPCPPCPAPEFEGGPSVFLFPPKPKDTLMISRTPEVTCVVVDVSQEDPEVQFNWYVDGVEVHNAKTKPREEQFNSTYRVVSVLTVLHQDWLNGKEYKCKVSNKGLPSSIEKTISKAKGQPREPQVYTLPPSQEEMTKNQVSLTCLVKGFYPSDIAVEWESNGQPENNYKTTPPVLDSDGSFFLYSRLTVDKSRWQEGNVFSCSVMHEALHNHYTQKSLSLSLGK
light: B1 light
notes: IgG4 S228P/L235E with 5 framework mutations in VH; cell-free system; also called IgG4PE-5m-CF
binding result (human C1q [1]): no binding | Kd [3]: 0.14 nM | % Ligand activity (human CD47 antigen [4]): 39.2% | Kd (human CD47 antigen [5]): 4.27 nM | koff (human CD47 antigen [5]): 0.00254 s⁻¹ | kon (human CD47 antigen [5]): 594000 M⁻¹ s⁻¹

B9: Anti-CD47 CF Control (antibody, V domains shown)
VH: QMQLVQSGAEVKKTGSSVKVSCKASGFNIKDYYLHWVRQAPGQALEWMGWIDPDQGDTEYAQKFQDRVTITRDRSMSTAYMELSSLRSEDTAMYYCNAAYGSSSYPMDYWGQGTTVTV
VL: NIQMTQSPSAMSASVGDRVTITCKASQDIHRYLSWFQQKPGKVPKHLIYRANRLVSGVPSRFSGSGSGTEFTLTISSLQPEDFATYYCLQYDEFPYTFGGGTKVEIK
notes: also called Control Antibody; anti-CD47 control antibody
% Ligand activity (human CD47 antigen [4]): 39.4% | Kd (human CD47 antigen [5]): 3.16 nM | koff (human CD47 antigen [5]): 0.00231 s⁻¹ | kon (human CD47 antigen [5]): 732000 M⁻¹ s⁻¹

B11: anti-CD47 antibody IgG4P-parental, CHO expressed (antibody)
VH: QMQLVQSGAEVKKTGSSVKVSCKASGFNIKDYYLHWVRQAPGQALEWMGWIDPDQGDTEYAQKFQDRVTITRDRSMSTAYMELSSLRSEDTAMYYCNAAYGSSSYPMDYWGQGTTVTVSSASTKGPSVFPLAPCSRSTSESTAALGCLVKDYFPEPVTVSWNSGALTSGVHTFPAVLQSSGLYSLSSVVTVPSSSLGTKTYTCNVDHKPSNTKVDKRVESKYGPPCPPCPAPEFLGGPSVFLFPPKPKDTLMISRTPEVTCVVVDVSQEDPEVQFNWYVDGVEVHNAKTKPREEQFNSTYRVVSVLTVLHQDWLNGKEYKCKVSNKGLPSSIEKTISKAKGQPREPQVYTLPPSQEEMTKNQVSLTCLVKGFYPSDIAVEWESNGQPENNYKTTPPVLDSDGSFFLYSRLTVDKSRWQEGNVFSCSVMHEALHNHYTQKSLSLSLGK
VL: NIQMTQSPSAMSASVGDRVTITCKASQDIHRYLSWFQQKPGKVPKHLIYRANRLVSGVPSRFSGSGSGTEFTLTISSLQPEDFATYYCLQYDEFPYTFGGGTKVEIKRTVAAPSVFIFPPSDEQLKSGTASVVCLLNNFYPREAKVQWKVDNALQSGNSQESVTEQDSKDSTYSLSSTLTLSKADYEKHKVYACEVTHQGLSSPVTKSFNRGEC
notes: Parental antibody as IgG4 S228P, made in CHO cells
binding result (human C1q [1]): no binding | Kd [3]: 0.18 nM

Continued, values first:

binding result (human C1q [1]): no binding | Kd [3]: 0.14 nM
B3: anti-CD47 antibody IgG1-parental, cell-free expressed (antibody)
heavy: not shown
light: B1 light
notes: Parental (AB6.12) variable domains on IgG1; cell-free system; also called IgG1-parental-CF; IgG1-CF

binding result (human C1q [1]): no binding | Kd (human CD47 antigen [2]): 4.91 nM | koff (human CD47 antigen [2]): 0.00404 s⁻¹ | kon (human CD47 antigen [2]): 824000 M⁻¹ s⁻¹ | Kd [3]: 0.21 nM
B5: anti-CD47 antibody IgG1-13mZ, cell-free expressed (antibody)
heavy: not shown
light: B1 light
notes: IgG1 Z allotype with 13 framework mutations in VH (13 + 2 mutations); cell-free system; also called IgG1-13mZ-CF

binding result (human C1q [1]): no binding
B6: anti-CD47 antibody IgG4PE-parental, cell-free expressed (antibody)
heavy: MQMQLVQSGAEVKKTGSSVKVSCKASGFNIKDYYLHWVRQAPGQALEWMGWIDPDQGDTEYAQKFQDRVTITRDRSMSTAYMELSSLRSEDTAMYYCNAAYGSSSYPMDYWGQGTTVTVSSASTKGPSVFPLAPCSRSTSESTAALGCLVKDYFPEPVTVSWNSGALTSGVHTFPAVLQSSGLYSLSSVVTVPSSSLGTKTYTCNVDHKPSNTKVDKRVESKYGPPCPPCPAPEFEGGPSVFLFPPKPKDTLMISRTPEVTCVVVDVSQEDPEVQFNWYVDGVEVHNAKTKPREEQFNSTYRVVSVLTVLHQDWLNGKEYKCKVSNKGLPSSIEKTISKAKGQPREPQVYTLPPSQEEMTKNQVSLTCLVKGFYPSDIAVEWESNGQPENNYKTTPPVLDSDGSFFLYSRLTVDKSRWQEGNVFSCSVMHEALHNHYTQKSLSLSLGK
light: B1 light
notes: Parental variable domains on IgG4 S228P/L235E; cell-free system; also called IgG4PE-parental-CF

binding result (human C1q [1]): no binding | Kd [3]: 0.12 nM | % Ligand activity (human CD47 antigen [4]): 37.4% | Kd (human CD47 antigen [5]): 4.09 nM | koff (human CD47 antigen [5]): 0.0026 s⁻¹ | kon (human CD47 antigen [5]): 636000 M⁻¹ s⁻¹
B8: anti-CD47 antibody IgG1-5m, cell-free expressed (antibody)
heavy: not shown
light: B1 light
notes: IgG1 with 5 framework mutations in VH; also called IgG1-5m-CF

Kd [3]: 0.18 nM | EC50 (human C1q [6]): 3.6 nM
B10: anti-CD47 antibody IgG1-parental, CHO expressed (antibody)
VH: not shown
VL: B11 VL
notes: Parental antibody as IgG1, made in CHO cells; also called IgG1-QN1-CHO

binding result (human C1q [1]): no binding | Kd [3]: 0.21 nM
B12: anti-CD47 antibody IgG4PE-parental, CHO expressed (antibody)
VH: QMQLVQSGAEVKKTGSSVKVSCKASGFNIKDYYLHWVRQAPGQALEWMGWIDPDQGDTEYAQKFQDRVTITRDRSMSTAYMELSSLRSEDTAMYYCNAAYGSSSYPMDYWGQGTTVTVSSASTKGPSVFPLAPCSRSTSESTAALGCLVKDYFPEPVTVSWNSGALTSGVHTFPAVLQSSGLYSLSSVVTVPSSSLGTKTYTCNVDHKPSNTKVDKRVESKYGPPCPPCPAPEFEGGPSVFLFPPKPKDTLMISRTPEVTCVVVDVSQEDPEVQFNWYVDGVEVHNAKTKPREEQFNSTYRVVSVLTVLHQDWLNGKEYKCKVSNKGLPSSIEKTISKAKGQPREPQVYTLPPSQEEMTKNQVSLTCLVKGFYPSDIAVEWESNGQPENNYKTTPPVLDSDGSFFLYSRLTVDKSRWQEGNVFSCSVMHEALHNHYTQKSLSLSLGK
VL: B11 VL
notes: Parental antibody as IgG4 S228P/L235E, made in CHO cells; also called IgG4-PE CHO; CHO IgG4PE

From patent US20170369572A1 (CELGENE, published 2017)
